Patent publication US20240124597A1 (Bristol-Myers Squibb, published 2024)
Substitutions are numbered along the chain they refer to. Numbers in names are those of the source. One block for each binder: values may come before it.

Key:
[1] = target: T1, human-CD40-monomer protein (human, UniProt P25942 21-193, limits assumed); test: SPR, Ab captured on protein A, hCD40 monomer 500 and 50 nM, 1:1 fit; supernatant
T1 construct: Soluble monomer generated in house, used as SPR analyte; also called hCD40; hCD40-monomer
Protocol: (§1) Titer analysis was performed using Biolayer Interferometry (BLI) on an Octet RED instrument (Fortebio) by capturing antibodies from supernatant using protein A sensor tips and measuring capture response with respect to a standard curve obtained using a control antibody sample. SPR data were obtained by capturing antibodies on a protein A surface and testing the binding of 500 nM and 50 nM injections of human-CD40 analyte, using a BIAcore™ T200 instrument (GE Healthcare). The kinetic data for the two concentrations of hCD40-monomer were fit to a 1:1 Langmuir model, to yield estimates of the kinetic and affinity values for these interactions, and for comparison of the different molecules.

[2] = target: T1, human-CD40-monomer protein; test: SPR, Ab captured on protein A, hCD40 monomer 500 and 50 nM, 1:1 fit; supernatant; sup (supernatant); Vh-hz2 / Vk-hz2
Protocol: as §1

[3] = target: T2, human CD40 on cells (tonsillar B cells, immature dendritic cells, Ramos-Blue cells) (human, UniProt P25942 21-277); test: cell-based or functional assay
[4] = target: T1, human-CD40-monomer protein; test: SPR, purified Ab captured on protein A, hCD40 monomer 500-3.9 nM, 37 C, 1:1 Langmuir fit
Protocol: (§2) Based on the sequences, titer, and SPR binding data, antibodies were selected for larger scale expression, purification, and further characterization. SPR analysis using purified antibodies was performed by capturing antibodies on a protein A surface, with binding of a 500-3.9 nM (2:1) dilution series of human-CD40 monomer, at either 25° C. or 37° C. in PBS-T pH 7.1 buffer; the titration data was fit to a 1:1 Langmuir model.
(§3) SPR data are fit to a 1:1 Langmuir model using BIAcore™ T200 evaluation software to obtain values for the association rate constant (ka), dissociation rate constant (kd) and dissociation constant (KD).

[5] = target: T1, human-CD40-monomer protein; test: SPR, purified Ab captured on protein A, hCD40 monomer 500-3.9 nM, 25 C, 1:1 Langmuir fit
Protocol: as §2, §3

hCD64 [6] = target: T3, hCD64 (human, UniProt P12314 16-288, limits assumed); test: SPR, Ab captured on protein A, hCD64-His 10 µM-1.5 nM as analyte
T3 construct: His-tagged; also called hFcγRI
Protocol: (§4) FcγR binding SPR: FcγR binding can be measured in vitro using purified FcγRs using methods, such as BIAcore™ surface plasmon resonance (SPR). One method tests the binding of purified His-tagged FcγR proteins (FcγR-his) to antibodies that are captured on a sensor surface containing protein A which has been immobilized using standard ethyl(dimethylaminopropyl) carbodiimide (EDC)/N-hydroxysuccinimide (NHS) chemistry with ethanolamine blocking. These experiments are performed on a BIAcore™ T200 instrument (GE Healthcare, Marlborough, MA) at 25° C. For example, samples of purified antibody at 3 μg/ml concentration are first captured on the immobilized protein A surface using a 15 second (s) contact time at 10 μl/min flow rate. This is followed by the binding of purified FcγR-His proteins at various concentrations, such as 10 μM-1.5 nM (2:1 dilution series) or 10 μM-13.7 nM (2:1 dilution series), using 120 s association and dissociation times at a flow rate of 30 μ/min. All steps are performed in a running buffer consisting of 10 mM NaPO₄, 130 mM NaCl, 0.05% p20 (PBS-T) pH 7.1. FcγR proteins tested in these studies include the “high affinity” FcγR CD64 (hFcγRI), as well as the “low affinity” FcγRs CD32a-H131 (FcγRIIa-H131), CD32a-R131 (FcγRIIa-R131), CD32b (FcγRIIb), CD16a-V158 (FcγRIIIa-V158), and CD16a-F158 (FcγRIIIa-F158), which were expressed and purified in house. […]

hCD64 [7] = target: T3, hCD64; test: SPR, antibody captured on protein A, His-tagged hCD64 as analyte; %Rmax against hCD64 concentration
Protocol: as §4

hCD16a-F158 = target: T4, hCD16a-F158 (human, UniProt P08637 17-208); test: SPR, antibody captured on protein A, His-tagged FcγR as analyte; 1:1 steady state fit
T4 construct: His-tagged; F158 allotype; also called FcγRIIIa-F158
Protocol: (§5) FcγR binding SPR: FcγR binding can be measured in vitro using purified FcγRs using methods, such as BIAcore™ surface plasmon resonance (SPR). One method tests the binding of purified His-tagged FcγR proteins (FcγR-his) to antibodies that are captured on a sensor surface containing protein A which has been immobilized using standard ethyl(dimethylaminopropyl) carbodiimide (EDC)/N-hydroxysuccinimide (NHS) chemistry with ethanolamine blocking. These experiments are performed on a BIAcore™ T200 instrument (GE Healthcare, Marlborough, MA) at 25° C. For example, samples of purified antibody at 3 μg/ml concentration are first captured on the immobilized protein A surface using a 15 second (s) contact time at 10 μl/min flow rate. This is followed by the binding of purified FcγR-His proteins at various concentrations, such as 10 μM-1.5 nM (2:1 dilution series) or 10 μM-13.7 nM (2:1 dilution series), using 120 s association and dissociation times at a flow rate of 30 μ/min. All steps are performed in a running buffer consisting of 10 mM NaPO₄, 130 mM NaCl, 0.05% p20 (PBS-T) pH 7.1. FcγR proteins tested in these studies include the “high affinity” FcγR CD64 (hFcγRI), as well as the “low affinity” FcγRs CD32a-H131 (FcγRIIa-H131), CD32a-R131 (FcγRIIa-R131), CD32b (FcγRIIb), CD16a-V158 (FcγRIIIa-V158), and CD16a-F158 (FcγRIIIa-F158), which were expressed and purified in house. SPR data are fit to either a 1:1 Langmuir model, or a 1:1 steady state model using BIAcore™ T200 evaluation software to obtain values for the association rate constant (ka), dissociation rate constant (kd) and dissociation constant (KD).

hCD16a-V158 = target: T5, hCD16a-V158 (human, UniProt P08637 17-208); test: as above
T5 construct: His-tagged; V158 allotype; also called FcγRIIIa-V158
Protocol: as §5

hCD32a-R131 = target: T6, hCD32a-R131 (human, UniProt P12318 34-217, limits assumed); test: as above
T6 construct: His-tagged; R131 allotype; also called FcγRIIa-R131
T6 sequence (looked up): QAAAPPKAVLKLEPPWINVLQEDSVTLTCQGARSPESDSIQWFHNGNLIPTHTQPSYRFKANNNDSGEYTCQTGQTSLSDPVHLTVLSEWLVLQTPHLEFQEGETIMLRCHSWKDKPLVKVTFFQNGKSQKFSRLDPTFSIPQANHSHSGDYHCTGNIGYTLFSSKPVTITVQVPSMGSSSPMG
Protocol: as §5

hCD32a-H131 = target: T7, hCD32a-H131 (human, UniProt P12318 34-217, limits assumed); test: as above
T7 construct: His-tagged; H131 allotype; also called FcγRIIa-H131
T7 sequence (looked up): T6 sequence (looked up) with R134H
Protocol: as §5

hCD32b = target: T8, hCD32b (human, UniProt P31994 43-217, limits assumed); test: as above
T8 construct: His-tagged; also called FcγRIIb
T8 sequence (looked up): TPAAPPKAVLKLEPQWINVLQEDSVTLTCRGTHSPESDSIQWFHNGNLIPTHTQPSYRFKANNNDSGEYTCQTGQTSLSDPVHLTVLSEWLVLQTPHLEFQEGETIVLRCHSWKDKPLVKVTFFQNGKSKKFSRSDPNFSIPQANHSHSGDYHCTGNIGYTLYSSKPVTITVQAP
Protocol: as §5

hCD64 [8] = target: T3, hCD64; test: SPR, antibody captured on protein A, His-tagged FcγR as analyte; 1:1 Langmuir fit
Protocol: as §4

[9] = target: T2, human CD40 on cells (tonsillar B cells, …); test: cell-based or functional assay; remark: listed apart in the source

T2 sequence (P25942 21-277 limits assumed): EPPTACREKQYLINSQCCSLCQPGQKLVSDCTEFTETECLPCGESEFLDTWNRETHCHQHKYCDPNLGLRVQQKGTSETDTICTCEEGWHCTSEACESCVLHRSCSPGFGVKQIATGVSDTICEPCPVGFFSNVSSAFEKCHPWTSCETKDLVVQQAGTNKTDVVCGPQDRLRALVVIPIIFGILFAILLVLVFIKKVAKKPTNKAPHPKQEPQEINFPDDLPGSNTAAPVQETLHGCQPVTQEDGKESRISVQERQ
T1 sequence (P25942 21-193 limits assumed): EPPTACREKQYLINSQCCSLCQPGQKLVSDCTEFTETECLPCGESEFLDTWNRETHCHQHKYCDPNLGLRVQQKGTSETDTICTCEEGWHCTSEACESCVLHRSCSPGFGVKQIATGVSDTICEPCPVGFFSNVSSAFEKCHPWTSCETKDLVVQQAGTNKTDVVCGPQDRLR
T3 sequence (P12314 16-288 limits assumed): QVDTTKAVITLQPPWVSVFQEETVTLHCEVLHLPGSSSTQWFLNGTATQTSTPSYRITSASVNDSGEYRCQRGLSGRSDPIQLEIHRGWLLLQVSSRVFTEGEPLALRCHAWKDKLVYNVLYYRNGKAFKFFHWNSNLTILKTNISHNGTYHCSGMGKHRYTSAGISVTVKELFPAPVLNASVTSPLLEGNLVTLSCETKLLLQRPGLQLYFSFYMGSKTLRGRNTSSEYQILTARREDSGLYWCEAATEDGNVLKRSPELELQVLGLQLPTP
T5 sequence (P08637 17-208 F176V limits assumed): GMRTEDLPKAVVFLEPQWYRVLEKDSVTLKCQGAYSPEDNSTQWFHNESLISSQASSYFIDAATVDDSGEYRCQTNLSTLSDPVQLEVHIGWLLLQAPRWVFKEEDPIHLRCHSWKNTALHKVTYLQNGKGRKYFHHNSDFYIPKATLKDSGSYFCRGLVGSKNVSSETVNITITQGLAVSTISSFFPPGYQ
T4 sequence (P08637 17-208 limits assumed): as the sequence (P08637 17-208 F176V limits assumed) above, with V160F counted along it

Kd [1]: 3.2 nM
koff [1]: 0.00064 s⁻¹
kon [2]: 200000 M⁻¹ s⁻¹
B1: Y12XX-hz16 (antibody, human IgG1, kappa, V domains shown)
VH: QVQLVQSGAEVKKPGSSVKVSCKASGYAFTSYWMHWVRQRPGQGLEWMGFINPTTGYSEYNQKFKDRVTITADKSTSTAYMELSSLRSEDTAVYYCARWGLPPFAYWGQGTLVTVSS
VL: DIQMTQSPSFLSASVGDRVTITCKASQDVSTAVAWYQQKPGKAPKLLIYSASYRYTGVPSRFSGSGSGTDFTLTISSLQPEDFATYYCQQHYSTPWTFGGGTKVEIKR
notes: Humanized, IgG1-P238K; supernatant sample

Inhibition of B cell proliferation induced by soluble CD40L trimer, Average (IC50 ng/ml) [3]: 6 ng/mL
Kd [1]: 4.7 nM
koff [1]: 0.0011 s⁻¹
kon [1]: 240000 M⁻¹ s⁻¹
Kd [4]: 10.9 nM
koff [4]: 0.0057 s⁻¹
kon [4]: 520000 M⁻¹ s⁻¹
Kd [5]: 4.4 nM
koff [5]: 0.0013 s⁻¹
kon [5]: 290000 M⁻¹ s⁻¹
B2: Y12XX-hz40-P238K (antibody, human IgG1, kappa, V domains shown)
VH: B1 VH with R40A, F50Q, T54S, T55Q, Y57R, E59Q, Q62E, D66T, P102Q
VL: EIVMTQSPATLSVSPGERATLSCKASQDVSTAVAWYQQKPGQAPRLLIYSASYRYTGIPARFSGSGSGTEFTLTISSLQSEDFAVYYCQQHYSTPWTFGGGTKVEIKR
notes: also called Vh-hz12;Vk-hz3

fold weaker binding compared to wild type (control-IgG1) (hCD64 [6]): 125 fold
EC50 (read off the curve) (hCD64 [7]): ~30 nM
Kd (hCD16a-F158): > 50000 nM
Kd (hCD16a-V158): > 50000 nM
Kd (hCD32a-R131): > 50000 nM
Kd (hCD32a-H131): > 50000 nM
Kd (hCD32b): > 50000 nM
Kd (hCD64 [8]): 25 nM
Potency for inhibition of CD40L expressing CHO cells stimulation of B cell proliferation (IC50 ng/ml) [9]: 38.1 ng/mL
Inhibition of B cell proliferation induced by soluble CD40L trimer, Average (IC50 ng/ml) [3]: 6.7 ng/mL
Kd [1]: 3.5 nM
koff [1]: 0.00062 s⁻¹
kon [1]: 180000 M⁻¹ s⁻¹
Kd [4]: 8.5 nM
koff [4]: 0.0037 s⁻¹
kon [4]: 440000 M⁻¹ s⁻¹
Kd [5]: 3.1 nM
koff [5]: 0.00069 s⁻¹
kon [5]: 220000 M⁻¹ s⁻¹
B3: Y12XX-hz28-P238K (antibody, human IgG1, kappa)
heavy: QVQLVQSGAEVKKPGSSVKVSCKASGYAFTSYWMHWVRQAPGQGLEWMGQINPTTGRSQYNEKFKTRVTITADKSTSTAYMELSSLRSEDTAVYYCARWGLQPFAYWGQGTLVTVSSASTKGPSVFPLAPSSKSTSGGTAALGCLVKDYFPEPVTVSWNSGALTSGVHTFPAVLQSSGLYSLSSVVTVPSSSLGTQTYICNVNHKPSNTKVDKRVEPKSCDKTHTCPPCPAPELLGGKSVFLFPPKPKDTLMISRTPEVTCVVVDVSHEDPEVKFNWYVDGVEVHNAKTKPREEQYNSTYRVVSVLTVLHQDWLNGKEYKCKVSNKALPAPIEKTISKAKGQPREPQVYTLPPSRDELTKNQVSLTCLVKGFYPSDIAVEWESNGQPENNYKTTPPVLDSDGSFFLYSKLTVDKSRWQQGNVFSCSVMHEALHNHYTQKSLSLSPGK
light: DIQMTQSPSFLSASVGDRVTITCKASQDVSTAVAWYQQKPGKAPKLLIYSASYRYTGVPSRFSGSGSGTDFTLTISSLQPEDFATYYCQQHYSTPWTFGGGTKVEIKRTVAAPSVFIFPPSDEQLKSGTASVVCLLNNFYPREAKVQWKVDNALQSGNSQESVTEQDSKDSTYSLSSTLTLSKADYEKHKVYACEVTHQGLSSPVTKSFNRGEC
notes: also called Y12XX-hz28-IgG1-P238K; Y12XX-hx28-IgG1-P238K
